In PMC12208494, “The zinc metalloprotein MigC impacts cell wall biogenesis through interactions with an essential Mur ligase in Acinetobacter baumannii” (PLOS Pathogens, 2025) one finds Km data, which are given here for two proteins.

Assay type in all cases: biochemical, Acinetobacter baumannii
Substrate in the series “HPLC of UMAG formation”: Nc1ncnc2c1ncn2[C@@H]1O[C@H](COP(=O)(O)OP(=O)(O)OP(=O)(O)O)[C@@H](O)[C@H]1O
Kind of series: HPLC of UMAG formation. Conditions: 200 µM UMA, 1 mM D-glutamate, 2 mM MgCl2, 500 µM GTP, BSA added (no MigC), pH 7.4, 37 °C.

Substrate in series [1]: Nc1nc2c(ncn2[C@@H]2O[C@H](COP(=O)(O)OP(=O)(O)OP(=O)(O)O)[C@@H](O)[C@H]2O)c(=O)[nH]1
Kind of series: malachite green phosphate release. Conditions: Zn-bound MigC (1 equivalent Zn), 2 mM MgCl2, 150 mM KCl, pH 7.4, 37 °C.

Substrate in series [2]: Nc1ncnc2c1ncn2[C@@H]1O[C@H](COP(=O)(O)OP(=O)(O)OP(=O)(O)O)[C@@H](O)[C@H]1O
Kind of series: malachite green phosphate release. The note with it: Zn-bound MigC (1 equivalent Zn), 2 mM MgCl2, 150 mM KCl, pH 7.4, 37 °C.

B1: MurD (Acinetobacter baumannii ATCC 17978) (protein)
chain: MLIQRGGLKVVAGLGISGVSAVNFLHEQGYQVAVTDSRPTPPGHDQIPAGVKTSFGQLDQELLLQAEEIILSPGLAPQLPEIQAAIAKGISVVGDIQLLRRATDVPIVAITGSNAKSTVTTLIGLMAKDAGKKVAVGGNLGRPALDLLKDQPELLVLELSSFQLETTSHLNAEVAVVLNMSEDHLDRHGNMLGYHQAKHRIFQGAKKVVFNRDDALSRPLVPDTTPMQSFGLNAPDLNQYGVLRDADGTLWLACGLQRLIKSSDLYIQGMHNVANALACLALGEAIGLPMESMLETLKQFKGLEHRCEYVKTVHDVRYYNDSKGTNVGATLAAIDGLGAAIEVKKGKVALILGGQGKGQDFSPLRSSIEKYAKVVVLIGEDAPVIEQAIQGATKILHAATLKEAVELCQRETQAEDVVLLSPACASFDMFKSYNDRGQQFVACVNSLV
notes: full length, N-terminal 6xHis tag removed by TEV protease, E. coli BL21(DE3)
In general, Km refers to the concentration of substrate that gives half-maximal velocity. For B1, the Km in the series “HPLC of UMAG formation” is reported as 149 ± 25 µM.

B2: MigC (A1S_0934) (Acinetobacter baumannii) (protein)
chain: MKLIAQKTVPTHIISGFLGAGKTTLLQHLLSQKPKDEVWAVLMNEFGQIGVDQQLLPQDQGYAVKELLGGCLCCSSQLPMHIALARLLSEQKPDRLFIEPTGLGHPSQLFDQLTEPHWQNSLAMRALVTVVDGSRLHDTNWVKQNLYEDQLKAAQIVVVSHADTMTFEDEQALVELKEEYQPYQQQWLKTEHGQLELAQIDVPARLTERSIQPLLKLQKQMTEAEVVKEIHQLPYHYVETAQGYMVAGWKFPKRWKFEFYALLDVLCAQQDWLRIKGIFNTDQGWKTFNFNPEQFNYKSGEEGIDNRIEMISQHEHDWLAFETELLACRIEQ
notes: pre-loaded with 1 equivalent Zn; UniProt ID is the one representing MigC in a homologue alignment and may be from another strain
As for B2, the Km came to 110 ± 14 µM in series [1] and 51.1 ± 12 µM in series [2].
